Experimental data published in paper PMC10925414.

Key:
[1] = molecular target: γC3 EC1-EC4 wild type (PcdhγC3 EC1-EC4 ectodomain fragment) (mouse); assay: AUC; sedimentation equilibrium of single proteins; 1.1, 0.73 and 0.37 mg/mL; 10 mM Tris, 150 mM NaCl, 3 mM CaCl2, pH 8.0, 250 mM imidazole; 25°C; 11000-20000 rpm; interference at 675 nm; global fit in SedPhat; dimer to monomers
[2] = molecular target: γC3 protocadherin EC1-EC4 (Mus musculus); conditions: cited from earlier work

Row | Kd [1] [µM] | Substance | Kd [2] [µM]
1 | 115 | γC3 EC1-EC4 wild type (PcdhγC3 EC1-EC4 ectodomain fragment) (domain or fragment) | 
2 |  | γC3 protocadherin EC1-EC4 (from UniProt Q9UN70) | 115
